Data reported in patent publication US8058396B2, “Cystatin C as an antagonist of TGF-β and methods related thereto” (National Jewish Health, priority 2003, dated 2011).

B1: CystC: full-length human Cystatin C (SEQ ID NO:2), C-terminally Myc- and (His)6-tagged, retrovirally expressed and secreted by the cells (protein, listed as Homo sapiens)
chain: MAGPLRAPLLLLAILAVALAVSPAAGSSPGKPPRLVGGPMDASVEEEGVRRALDFAVGEYNKASNDMYHSRALQVVRARKQIVAGVNYFLDVELGRTTCTKTQPNLDNCPFHDQPHLKRKAFCSFQIYAVPWQGTMTLSKSTCQDA
modifications: C-terminal Myc and His6 tags
B2: Δ14CystC: human CystC with deletion of positions 80 to 93 (conserved cysteine proteinase inhibitor motif), retrovirally expressed and secreted (protein)
chain: MAGPLRAPLLLLAILAVALAVSPAAGSSPGKPPRLVGGPMDASVEEEGVRRALDFAVGEYNKASNDMYHSRALQVVRARLGRTTCTKTQPNLDNCPFHDQPHLKRKAFCSFQIYAVPWQGTMTLSKSTCQDA
modifications: left off: small tags and cut ends

Columns and labels:
3T3-L1 cells [1] = experiment: DNA synthesis in 3T3-L1 cells; assay type: cell-based, murine; conditions: data not shown
3T3-L1 cells [2] = experiment: Migration of 3T3-L1 cells to fibronectin; assay type: cell-based, murine; conditions: data not shown
NMuMG cells = experiment: NMuMG cell invasion through Matrigel matrices; assay type: cell-based, murine; conditions: expression in NMuMG cells, 48 hours, p<0.05; for TGF-β1-enhanced NMuMG cell invasion: TGF-β1 5 ng/ml
Procedure: In another experiment, NMuMG cells were infected with ecotropic retrovirus encoding either GFP (i.e., control), CystC, or Δ14CystC, and subsequently were isolated by FACS-sorting for GFP expression to yield stable polyclonal populations of control, CystC, and Δ14CystC-expressing cells. The expression and secretion of recombinant CystC proteins by infected NMuMG and NRK cells was monitored by immunoblotting conditioned-media with anti-CystC antibodies. The same cells were incubated in the absence or presence of TGF-β1 (5 ng/ml) for 8 hours, whereupon alterations in actin cytoskeletal architecture was visualized by direct rhodamine-phalloidin immunofluorescence. Next, the control, CystC-, and Δ14CystC-expressing NMuMG cells were incubated in the absence or presence of TGF-β1 (5 ng/ml) for 36 hours, whereupon E-cadherin expression was monitored by immunoblotting with anti-E-Cadherin antibodies. Finally, control, CystC-, and Δ14CystC-expressing NMuMG cells were allowed to invade through Matrigel matrices in the absence or presence of TGF-β1 (5 ng/ml) for 48 hours.

TGF-β1 = TGF-β1 (Homo sapiens, UniProt P01137); experiment: Co-immunoprecipitation and affinity pull-down of CystC with TGF-β1; assay type: binding; conditions: data not shown
TGF-β1, sequence (P01137 279-390 limits assumed, species assumed): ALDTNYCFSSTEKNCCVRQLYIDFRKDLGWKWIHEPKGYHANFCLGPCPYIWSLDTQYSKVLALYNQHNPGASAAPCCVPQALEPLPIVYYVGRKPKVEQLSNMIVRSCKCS

3T3-L1 fibroblasts = experiment: 3T3-L1 cell invasion through Matrigel matrices; assay type: cell-based, murine; conditions: retroviral expression in 3T3-L1 cells, 48 hr; for serum-stimulated (tonic) 3T3-L1 cell invasion: relative to GFP-expressing cells; for TGF-β1-stimulated 3T3-L1 cell invasion: TGF-β1 5 ng/ml, p<0.05
Procedure: The effect CystC and D14CystC on the invasion of HT1080 and 3T3-L1 cells was determined as described previously (42). Briefly, upper chambers were coated with 100 μl of diluted Matrigel (1:50 in serum-free media), which was allowed to evaporate to dryness overnight at room temperature. The following morning the Matrigel mixtures were rehydrated and subsequently cultured with control-, CystC-, or D14CystC-expressing HT1080 or 3T3-L1 cells at a density of 100,000 cells/chamber. Cellular invasion was stimulated by addition of 2% serum to the lower chambers. Forty-eight hr later, the cells were washed twice in ice-cold PBS and immediately fixed for 15 min with 95% ethanol. Cells remaining in the upper chambers were removed with a cotton swab, whereas those remaining in the lower chamber were stained with crystal violet. Quantifying invading cells was determined through two independent measures, which yielded identical results: (i) manual counting under a light microscope, and (ii) crystal violet dye extraction by incubation of the membranes in 10% acetic acid, followed by spectrophotometry at 590 nm.
In some experiments, the effects of recombinant CystC and D14CystC on 3T3-L1 cell invasion was examined. To do so, 3T3-L1 cells (100,000 cells/chamber) were allowed to invade through Matrigel […], together with or without 5 ng/ml of TGF-β1. All subsequent procedures were performed as described above.
GFP-, CystC-, or Δ14CystC-expressing 3T3-L1 cells were allowed to invade through Matrigel-coated filters in the absence or presence of TGF-β1 (5 ng/ml) for 48 hr, and the results are shown in FIG. 2A. […] Data are the mean (±SE) of four independent experiments presented as the percent invasion relative to GFP-expressing 3T3-L1 cells.
Moreover, the inhibitory effects of CystC on 3T3-L1 cell invasion could be recapitulated by addition of recombinant CystC fusion proteins. Control or TGF-β1-stimulated (5 ng/ml) 3T3-L1 cells were allowed to invade through Matrigel-coated filters for 48 hr in the absence or presence of recombinant (10 mg/ml) GST, GST-CystC, or GST-D14CystC as indicated in FIG. 2B. […] Data are the mean (±SE) of three independent experiments presented as the percent invasion relative to untreated 3T3-L1 cells. […] Collectively, these findings indicate that 3T3-L1 cell invasion proceeds through cathepsin B-dependent and TGF-β-dependent pathways.

cathepsin B = cathepsin B (Homo sapiens, UniProt P07858); conditions: mutant lacks the cysteine inhibitor motif; reference 23; cited from earlier work

Molecule	3T3-L1 cell DNA synthesis (3T3-L1 cells [1])	3T3-L1 cell migration to fibronectin (3T3-L1 cells [2])	tonic NMuMG cell invasion (NMuMG cells)	TGF-β1-enhanced NMuMG cell invasion (NMuMG cells)	direct physical interaction with TGF-β1 (TGF-β1)	serum-stimulated (tonic) 3T3-L1 cell invasion (3T3-L1 fibroblasts)	TGF-β1-stimulated 3T3-L1 cell invasion (3T3-L1 fibroblasts)	inactivation of cathepsin B (cathepsin B)
B1	failed to effect	failed to effect	significantly inhibited	inhibited significantly	failed to demonstrate a direct physical interaction	inhibited significantly	significantly inhibited	
B2				inhibited significantly		unaffected	significantly inhibited	unable to inactivate
